Experiment [1] addresses T1, yeast Arp2/3 complex (yeast, UniProt P32381 1-391; P47117 1-449; P38328 1-384; P53731 1-342; Q05933 1-178; P33204 …). The experiment in a line: AUC.
Experiment [2] deals with T1, yeast Arp2/3 complex. The experiment in a line: fluorescence polarisation.
In experiment [3] the target is ArpC1/Arc40 (subunit of yeast Arp2/3 complex) (yeast, UniProt P38328 1-384). The experiment in a line: cross-linking.
Experiment [4] deals with Arp3 (subunit of yeast Arp2/3 complex) (yeast, UniProt P47117 1-449). Kind of experiment: cross-linking.
Experiment [5] addresses T1, yeast Arp2/3 complex. Kind of experiment: fluorescence polarisation. This is another data set of the same source. In general terms: In fluorescence polarisation assays a small probe gives low polarisation when free and higher when bound to something large.

Like-named read-outs stand apart in the source and are kept apart here.

As usually defined, the Kd is a measure of binding affinity in units of concentration.

Chain of ArpC1/Arc40 (subunit of yeast Arp2/3 complex) (P38328 whole entry, one chain of several): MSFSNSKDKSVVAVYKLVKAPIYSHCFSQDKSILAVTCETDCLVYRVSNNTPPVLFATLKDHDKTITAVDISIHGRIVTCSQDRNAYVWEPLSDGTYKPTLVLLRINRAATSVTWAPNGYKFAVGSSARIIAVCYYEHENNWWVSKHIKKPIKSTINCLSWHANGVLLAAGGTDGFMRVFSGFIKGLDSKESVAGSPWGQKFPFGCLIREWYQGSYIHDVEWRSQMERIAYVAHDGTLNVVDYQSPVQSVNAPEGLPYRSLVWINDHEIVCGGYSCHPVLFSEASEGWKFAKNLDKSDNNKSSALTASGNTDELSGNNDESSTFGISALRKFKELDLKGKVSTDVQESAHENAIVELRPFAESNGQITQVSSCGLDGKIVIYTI
Chain of Arp3 (subunit of yeast Arp2/3 complex) (P47117 whole entry, one chain of several): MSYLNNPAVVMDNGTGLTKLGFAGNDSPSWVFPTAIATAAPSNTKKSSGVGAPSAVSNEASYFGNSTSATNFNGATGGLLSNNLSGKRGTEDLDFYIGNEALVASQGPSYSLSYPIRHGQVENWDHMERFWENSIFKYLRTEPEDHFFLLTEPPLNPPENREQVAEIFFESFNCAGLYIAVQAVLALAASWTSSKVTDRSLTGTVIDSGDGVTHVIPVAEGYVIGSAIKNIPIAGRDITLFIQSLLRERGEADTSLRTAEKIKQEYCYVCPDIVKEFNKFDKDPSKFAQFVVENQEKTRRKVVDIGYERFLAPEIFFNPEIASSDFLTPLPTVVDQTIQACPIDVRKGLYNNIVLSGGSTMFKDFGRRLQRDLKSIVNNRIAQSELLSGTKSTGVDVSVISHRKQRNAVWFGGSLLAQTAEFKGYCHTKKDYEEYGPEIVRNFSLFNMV

B1: Gmf1-GFP (natural protein, S. cerevisiae, UniProt Q12156 1-149, looked up)
chain: MSNLYKIGTETRNKIKKFRTSTARTDSIKALSIKIEPKPSYEIIVDEDEQEELDEIEDLSELAEILPDNSPRFVLTAYPTTTKDGFKQTPLVLVYWKPMTVVSQEWKMLYAGALEMIREECGTFKLIEVSSGLEDDSDVEELREQLENC
On to B1, for which, in the experiment with yeast Arp2/3 complex [1], the “KD of the first binding site” value was < 0.03 µM, the “KD of the second binding site” value is ~2 µM and the “stoichiometry N” value was ~2 Gmf1-GFP per Arp2/3 complex. Binding in the experiment with yeast Arp2/3 complex [2] was put at a Kd of 0.013 ± 0.002 µM.

B2: wild-type Gmf1 (untagged) (natural protein, S. cerevisiae, UniProt Q12156 1-149, looked up)
chain: B1 chain
For B2, the binding result in experiment [3] and in experiment [4] was “binds” in each case. The molecule further yielded a Kd with yeast Arp2/3 complex [5] of 0.01 ± 0.003 µM.

For the origin of these results see publication PMC3714218 (Current biology : CB, 2013).
